Data reported in patent US12385058B2, “Herbicide tolerance protein, encoding gene thereof and use thereof” (Beijing Dabeinong Biotechnology Co., Ltd., priority 2018, dated 2025).

How the values were obtained:
[1] = Degradation of sulfometuron-methyl by purified herbicide tolerant proteins (enzymatic activity, HPLC); format: biochemical; details: 0.2 μg enzyme, 0.2 mM substrate, pH 7.0, 30° C., 20 min
Experimental: (§1) Each reaction was timed beginning with the addition of reactive enzyme, and was terminated with 1 mL of dichloromethane. The organic phase after delamination was dehydrated with anhydrous sodium sulfate.
(§2) The above dehydrated reaction solution was blown dry with nitrogen and filtered by adding 1 mL of methanol, and 20 μL of the filtrate was subjected to liquid chromatography-mass spectrometry (LC-MS). High performance liquid chromatography (HPLC) conditions were as follows: mobile phase being methanol:water (80:20, V/V), Zorbax XDB-C18 chromatographic column (3.5 μm, 2.1×50 mm, Agilent, USA), column temperature being room temperature, UV detector, with a detection wavelength of 255 nm, a sample injection volume of 20 μL, and a flow rate of 0.25 mL/min. The primary ion mass spectrometry conditions were as follows: ion detection mode being multi-reactive ion detection; ion polarity being negative ion; ionization mode being electrospray ionization; a capillary voltage of 4000 volts; a dry gas temperature of 330° C., a flow rate of 10 L/min, an atomizing gas pressure of 35 psi, a collision voltage of 135 volts; and a mass scan range of 300-500 m/z. The secondary ion mass spectrometry conditions were as follows: a collision voltage of 90 volts; a mass scanning range of 30-400 m/z, and other conditions being the same as those of the primary ion mass spectrometry. It was identified by LC-MS that the metabolite of thifensulfuron-methyl was thiophene sulfonic acid, and the metabolite of metsulfuron-methyl, chlorimuron-ethyl, bensulfuron-methyl, sulfometuron-methyl or tribenuron-methyl was its corresponding sulfonic acid. The amount of the generated thiophene sulfonic acid (metabolite) was detected using high performance liquid chromatography (HPLC).

[2] = format: biochemical; details: for specific enzyme activity, bensulfuron-methyl / specific enzyme activity, chlorimuron-ethyl / specific enzyme activity, metsulfuron-methyl / specific enzyme activity, thifensulfuron-methyl / specific enzyme activity, tribenuron-methyl: 0.2 μg enzyme, 0.2 mM substrate, pH 7.0, 30° C., 20 min
Experimental: as §1, §2

| Molecule | specific enzyme activity, sulfometuron-methyl [1] | efficiency of degrading bensulfuron-methyl, fold of ALT02 [2] | efficiency of degrading thifensulfuron-methyl, fold of ALT02 [2] | specific enzyme activity, bensulfuron-methyl [2] | specific enzyme activity, chlorimuron-ethyl [2] | specific enzyme activity, metsulfuron-methyl [2] | specific enzyme activity, thifensulfuron-methyl [2] | specific enzyme activity, tribenuron-methyl [2] | efficiency of degrading chlorimuron-ethyl, fold of ALT02 [2] | efficiency of degrading metsulfuron-methyl, fold of ALT02 [2] | efficiency of degrading bensulfuron-methyl, fold of ALT01 [2] | efficiency of degrading thifensulfuron-methyl, fold of ALT01 [2] | efficiency of degrading chlorimuron-ethyl, fold of ALT01 [2] | efficiency of degrading metsulfuron-methyl, fold of ALT01 [2] |
| --- | --- | --- | --- | --- | --- | --- | --- | --- | --- | --- | --- | --- | --- | --- |
| ALT02M1: herbicide tolerant protein, SEQ ID NO: 23; ALT02 with glycine to alanine at position 140 (protein, the amino acid sequence of ALT02M1) METDNVELAQSKRKVVLAEQGSFYIGGRTVTGPGKFDPSKPVIPYSNEGATFYINQMYVNFQAPVRPRGLPLVFWHGGGLTGHIWESTPDGRPGFQTLFVQDRHTVYTIDQPGRGRGNIPTFNGPFGQLEEESIVNTVTANSSKEGAWVRDRLGPAPGQFFENSQFPRGYEDNYFKEMGFSPSISSDEIVDAVVKLVTHIGPCVLVTHSASGVLGMRVATHAKNVRGIVAYEPATSIFPKGKVPEIPPLADKKSQIFPPFEIQESYFKKLAKIPIQFVFGDNIPKNPKSAYWFLDWWRVTRYAHSLSLEAINKLGGQASLLDLPTAGLRGNTHFPFTDRNNVQVASLLSDFLGKHGLDQNESKLAAALE | 5.7 µmol/min/mg | 2.3 fold | 3.3 fold | 4.1 µmol/min/mg | 10.9 µmol/min/mg | 2.3 µmol/min/mg | 94.4 µmol/min/mg | 3.3 µmol/min/mg |  |  |  |  |  |  |
| ALT02M2: herbicide tolerant protein, SEQ ID NO: 27; ALT02 with serine to valine at position 142 (protein, the amino acid sequence of the ALT02M2) METDNVELAQSKRKVVLAEQGSFYIGGRTVTGPGKFDPSKPVIPYSNEGATFYINQMYVNFQAPVRPRGLPLVFWHGGGLTGHIWESTPDGRPGFQTLFVQDRHTVYTIDQPGRGRGNIPTFNGPFGQLEEESIVNTVTGNVSKEGAWVRDRLGPAPGQFFENSQFPRGYEDNYFKEMGFSPSISSDEIVDAVVKLVTHIGPCVLVTHSASGVLGMRVATHAKNVRGIVAYEPATSIFPKGKVPEIPPLADKKSQIFPPFEIQESYFKKLAKIPIQFVFGDNIPKNPKSAYWFLDWWRVTRYAHSLSLEAINKLGGQASLLDLPTAGLRGNTHFPFTDRNNVQVASLLSDFLGKHGLDQNESKLAAALE | 3.7 µmol/min/mg | 1.4 fold | 3.9 fold | 2.5 µmol/min/mg | 9.5 µmol/min/mg | 1.3 µmol/min/mg | 111.3 µmol/min/mg | 11.3 µmol/min/mg |  |  |  |  |  |  |
| ALT02M3: herbicide tolerant protein, SEQ ID NO: 31; ALT02 mutated at positions 44, 45, 140, 142 and 146 (protein, the amino acid sequence of the ALT02M3) METDNVELAQSKRKVVLAEQGSFYIGGRTVTGPGKFDPSKPVIRASNEGATFYINQMYVNFQAPVRPRGLPLVFWHGGGLTGHIWESTPDGRPGFQTLFVQDRHTVYTIDQPGRGRGNIPTFNGPFGQLEEESIVNTVTANVSKERAWVRDRLGPAPGQFFENSQFPRGYEDNYFKEMGFSPSISSDEIVDAVVKLVTHIGPCVLVTHSASGVLGMRVATHAKNVRGIVAYEPATSIFPKGKVPEIPPLADKKSQIFPPFEIQESYFKKLAKIPIQFVFGDNIPKNPKSAYWFLDWWRVTRYAHSLSLEAINKLGGQASLLDLPTAGLRGNTHFPFTDRNNVQVASLLSDFLGKHGLDQNESKLAAALE | 1.2 µmol/min/mg |  |  | 0.7 µmol/min/mg | 40.3 µmol/min/mg | 4.4 µmol/min/mg | 18.7 µmol/min/mg | 3.5 µmol/min/mg | 14.2 fold | 2.1 fold |  |  |  |  |
| ALT01M1: herbicide tolerant protein, SEQ ID NO: 7; ALT01 with glycine to alanine at position 176 (protein, the amino acid sequence of the herbicide tolerant protein ALT01M1) METDKKTGTSRRSFVKAAGTGAIGIATLPLSTATAFAETDNVELAQSKRKVVLAEQGSFYIGGRTVTGPGKFDPSKPVIPYSNEGATFYINQMYVNFQAPVRPRGLPLVFWHGGGLTGHIWESTPDGRPGFQTLFVQDRHTVYTIDQPGRGRGNIPTFNGPFGQLEEESIVNTVTANSSKEGAWVRDRLGPAPGQFFENSQFPRGYEDNYFKEMGFSPSISSDEIVDAVVKLVTHIGPCVLVTHSASGVLGMRVATHAKNVRGIVAYEPATSIFPKGKVPEIPPLADKKSQIFPPFEIQESYFKKLAKIPIQFVFGDNIPKNPKSAYWFLDWWRVTRYAHSLSLEAINKLGGQASLLDLPTAGLRGNTHFPFTDRNNVQVASLLSDFLGKHGLDQNES | 5.4 µmol/min/mg |  |  | 3.9 µmol/min/mg | 10.4 µmol/min/mg | 2.2 µmol/min/mg | 89.9 µmol/min/mg | 3.1 µmol/min/mg |  |  | 2.3 fold | 3.3 fold |  |  |
| ALT01M2: herbicide tolerant protein, SEQ ID NO: 11; ALT01 with serine to valine at position 178 (protein, the amino acid sequence of the herbicide tolerant protein ALT01M2) METDKKTGTSRRSFVKAAGTGAIGIATLPLSTATAFAETDNVELAQSKRKVVLAEQGSFYIGGRTVTGPGKFDPSKPVIPYSNEGATFYINQMYVNFQAPVRPRGLPLVFWHGGGLTGHIWESTPDGRPGFQTLFVQDRHTVYTIDQPGRGRGNIPTFNGPFGQLEEESIVNTVTGNVSKEGAWVRDRLGPAPGQFFENSQFPRGYEDNYFKEMGFSPSISSDEIVDAVVKLVTHIGPCVLVTHSASGVLGMRVATHAKNVRGIVAYEPATSIFPKGKVPEIPPLADKKSQIFPPFEIQESYFKKLAKIPIQFVFGDNIPKNPKSAYWFLDWWRVTRYAHSLSLEAINKLGGQASLLDLPTAGLRGNTHFPFTDRNNVQVASLLSDFLGKHGLDQNES | 3.5 µmol/min/mg |  |  | 2.4 µmol/min/mg | 9.0 µmol/min/mg | 1.2 µmol/min/mg | 106.0 µmol/min/mg | 10.8 µmol/min/mg |  |  | 1.4 fold | 3.9 fold |  |  |
| ALT01M3: herbicide tolerant protein, SEQ ID NO: 15; ALT01 mutated at positions 80, 81, 176, 178 and 182 (protein, the amino acid sequence of the herbicide tolerant protein ALT01M3) METDKKTGTSRRSFVKAAGTGAIGIATLPLSTATAFAETDNVELAQSKRKVVLAEQGSFYIGGRTVTGPGKFDPSKPVIRASNEGATFYINQMYVNFQAPVRPRGLPLVFWHGGGLTGHIWESTPDGRPGFQTLFVQDRHTVYTIDQPGRGRGNIPTFNGPFGQLEEESIVNTVTANVSKERAWVRDRLGPAPGQFFENSQFPRGYEDNYFKEMGFSPSISSDEIVDAVVKLVTHIGPCVLVTHSASGVLGMRVATHAKNVRGIVAYEPATSIFPKGKVPEIPPLADKKSQIFPPFEIQESYFKKLAKIPIQFVFGDNIPKNPKSAYWFLDWWRVTRYAHSLSLEAINKLGGQASLLDLPTAGLRGNTHFPFTDRNNVQVASLLSDFLGKHGLDQNES | 1.1 µmol/min/mg |  |  | 0.68 µmol/min/mg | 38.4 µmol/min/mg | 4.2 µmol/min/mg | 17.8 µmol/min/mg | 3.3 µmol/min/mg |  |  |  |  | 14.2 fold | 2.1 fold |
